These results are taken from US20170275344A1, “POLYPEPTIDES AND USES THEREOF AS A DRUG FOR TREATMENT OF AUTOIMMUNE DISORDERS” (Compugen Ltd., priority 2014, published 2017).

The subject of test [1] is healthy human skin transplanted onto beige-SCID mice. Briefly: Humanized psoriasis model: healthy human skin xenotransplants on beige-SCID mice injected with psoriatic patients' PBMCs. Format: in vivo, mouse. To be noted: IHC, vs PBS treated group. An excerpt:
In this model, psoriasis is induced in xenotransplants of healthy human skin transplanted onto beige severe combined immunodeficiency (SCID) mice followed by intradermal (i.d.) injection of IL-2 enriched Peripheral Blood Mononuclear Cells (PBMCs) isolated from blood of psoriasis patients (Nickoloff, 1995; Wrone-Smith, 1996 Gilhar et al., 2002, 2006, 2011). The activity of these compounds was compared to that of Enbrel, a TNF inhibitor which is an approved biological drug for treatment of psoriasis. As a control for model robustness, we used dexamethasone, a steroid with suppressive effects on inflammatory cytokines and chemokines such as TNF-alpha and interferon-gamma which cause severe psoriasis. All treatments were administered intradermally, except for dexamethasone which was given topically.
Study Protocol: A) Healthy human skin pieces with a width of 0.4 mm and surface area of 1.5×1.5 cm were provided from residual skin of routine plastic surgery procedures from the Plastic Surgery Department of the Rambam Medical Center, Israel. In addition, 20 mL blood samples were taken from psoriatic patients. B) Seventy (70) beige-severe combined immunodeficient mice (SCID) (weight˜20-25 g) were included in this study. Normal healthy human donor skin was transplanted onto the beige-SCID mice as previously described (Nickoloff et al., 1995; Wrone-Smith, 1996; Gilhar et al., 2002, 2006, 2011; Kalish et al., 2009) and the mice were divided into 7 groups. C) Peripheral Blood Mononuclear Cells (PBMCs) isolated from psoriatic patients' blood were cultured in the presence of IL-2 [Prospec, 100 U/mL of RPMI 1640 media, 10% human AB serum (Sigma, St. Louis, Mo.), 1% glutamine, 1% antibiotics (media components; Biological Industries, Kibbutz Beit Haemeck, Israel)] for 14 days, as previously described (Gilhar et al, 2002). D) Four weeks following engraftment, each mouse was injected intra-dermally (i.d.) into the grafted skin lesion, with 1×10^7 activated allogeneic enriched PBMCs from psoriatic patients (FIG. 20). Cells from different psoriasis patients were equally distributed between treatment groups so that each patient is represented in each treatment group. E) On the day of PBMCs injection into the skin grafts, mice were divided randomly into treatment groups (n=9-10 mice per group) and administration of all drugs started (FIG. 20). All tested compounds including the vehicle were given intradermally (intralesional), three times a week, except for dexamethasone which was given topically for 14 consecutive days (Table 3).
F) Twenty eight days after starting the injections and treatment, skin was harvested (FIG. 20). Grafts were analyzed for the following psoriatic parameters by histology: epidermal thickening (acanthosis), suprapapillary epidermal thinning (papillomatosis), hyperkeratosis, parakeratosis, orthokeratosis, agranulosis-hypogranulosis, appearance of neutrophils in the upper spinous layer or in the corneal cell layer—Munro microabscess, regular elongation of rete ridges, angiogenesis, edema and dilated tortuous blood vessels in the dermal papilla and mononuclear cell infiltrate in the papillary dermis. Epidermal thickness was measured as detailed below, and HLA-DR, ICAM-1, Ki-67 and immune infiltrates (anti-CD3 stain) were evaluated by immunohistochemistry (IHC).
The entire skin graft was excised and placed in 10% formal saline overnight. Then, the specimens were place in 70% ethanol and were embedded according to the standard H&E protocol. Histological assessment of the skin grafts was performed by light microscopy and evaluated by two blinded observers [the second observer evaluated random slides (about 25% of all slides) to compare the data obtained by the first observer. […] Epidermal thickness was determined with an ocular micrometer at a minimum of 50 points along the epidermis selected to represent points of maximal and minimal thickness.
Representative grafts were allocated for IHC analysis. […]

The next test deals with total splenocytes. Description: Ex vivo recall responses of splenocytes, week 8 post bone marrow transplant. Format: cell-based, mouse. The procedure:
(§1) On week 8 post bone marrow cell transplantion, total splenocytes (5×10^5 cells/well) were cultured in the presence of medium alone (no stimulation), anti-CD3 (1 ug/ml), DBY peptide (10 ug/ml), irradiated male splenocytes (5×10^5 cells/well), or irradiated female splenocytes (5×10^5 cells/well). The individual splenocyte samples were cultured separately in triplicate wells. For T cell proliferative response, the cultures were pulsed with 1 uCi of tritiated thymidine at 24 hours and harvested at 72 hours post culture initiation. The statistical analysis carried out on the data is one-way ANOVA followed by Dunnett's post test as compared to the mice receiving male CD45.1+ bone marrow cells plus Control Ig treatment, p-values*<0.05, **<0.01,***<0.001, and #<0.0001.
as §1, with “transplant,” for “transplantion,”, “For” for “For T cell proliferative response,”, “cytokine cultures, the supernatants” for “cultures”, “collected” for “pulsed with 1 uCi of tritiated thymidine at 24 hours and harvested”, “initiation and the level of secreted cytokine was determined via LiquiChip.” for “initiation.”
These same populations of cells were analyzed at week 8 within the spleen. In addition, the proliferative and secreted cytokine responses of total splenocytes in ex vivo recall cultures were tested in the presence of medium alone, anti-CD3 (1 ug/ml), the HY antigen DBY peptide (NAGFNSNRANSSRSS; Genemed Synthesis; San Antonio, Tex.) (10 ug/ml), irradiated male splenocytes (1:1 ratio), or irradiated female splenocytes (1:1 ratio).

B1: C1ORF32 ECD-Fc (SEQ ID NO:42): fusion protein of human C1ORF32 ECD fused to mouse immunoglobulin Fc (human-mouse fusion protein) (protein)
chain: LQVTVPDKKKVAMLFQPTVLRCHFSTSSHQPAVVQWKFKSYCQDRMGESLGMSSTRAQSLSKRNLEWDPYLDCLDSRRTVRVVASKQGSTVTLGDFYRGREITIVHDADLQIGKLMWGDSGLYYCIITTPDDLEGKNEDSVELLVLGRTGLLADLLPSFAVEIMGSENLYFQGSGEPRGPTIKPCPPCKCPAPNLLGGPSVFIFPPKIKDVLMISLSPIVTCVVVDVSEDDPDVQISWFVNNVEVHTAQTQTHREDYNSTLRVVSALPIQHQDWMSGKEFKCKVNNKDLPAPIERTISKPKGSVRAPQVYVLPPPEEEMTKKQVTLTCMVTDFMPEDIYVEWTNNGKTELNYKNTEPVLDSDGSYFMYSKLRVEKKNWVERNSYSCSVVHEGLHNHHTTKSFSRTPGK
modifications: Fusion protein human C1ORF32-ECD fused to mouse IgG2a Fc
For the molecule B1, the “infiltration of T cells (CD3 positive cells)” value in test [1] is on record as “significant reduction of CD3 positive cells”. Also, the “inflammatory cytokines (IFN-gamma, IL-17, GM-CSF, IL-12, IL-2 and TNF-alpha)” value with total splenocytes (activation with male irradiated splenocytes or DBY peptide, vs Ig control treated mice) is “significantly lower levels”. The “IFNg, IL-17, IL-2, IL-12 and GM-CSF secretion” value in the test on total splenocytes (cultures stimulated with male irradiated splenocytes) was “inhibitory trend”. The “level of IL-10 and IL-4 secreted” value with total splenocytes (splenocytes of treated mice, in response to male or female splenocytes) is reported as “significantly increased”.
